{
  "source": "paper PMC3572911",
  "about": "(Biochemistry, 2013)",
  "target": "the molecule itself",
  "assay": "crystal structure",
  "data": [
    {"protein": "human liver pyruvate kinase (L-PYK) with the S12D mimic of phosphorylation (enzyme, Cys436 partially oxidized to the sulfenic derivative (sulfenic acid)) not shown", "values": [
      {"measurement": "stoichiometry N", "result": 4}
    ]}
  ]
}
